For four molecules, pKd results are on record in PMC9482650, “Quantitative fragmentomics allow affinity mapping of interactomes” (Nature Communications, 2022).

Some targets named below: Inadl_1, Q8NI35; GRASP, Q7Z6J2; TJP1_2, Q07157; GOPC, Q9HD26; LAP2, Q96RT1; DLG2_3, Q15700; Inadl_2, Q8NI35; GRIP2_4, Q9C0E4; SCRIB_2, Q14160; GRID2IP_2, A4D2P6; DLG5_1, Q8TDM6; MAGI1_2, Q96QZ7.
Assay in all cases: holdup assay
Common to all, as to parameters: key: below the threshold = too weak to quantify, mostly under pKd 3.1 to 4
What all share (details): plain residues with an end cap or a label only (N-terminal biotin on a linker: ado-ado)

The target in a further test is T1, GRIP1_3, Q9Y3R0.
T1 sequence (Q9Y3R0 247-346, limits assumed, looked up): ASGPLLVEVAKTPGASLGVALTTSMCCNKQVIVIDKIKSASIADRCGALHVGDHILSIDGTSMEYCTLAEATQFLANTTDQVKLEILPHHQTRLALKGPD

The target in the next test is T2, HTRA3, P83110.
T2 sequence (P83110 354-453, limits assumed, looked up): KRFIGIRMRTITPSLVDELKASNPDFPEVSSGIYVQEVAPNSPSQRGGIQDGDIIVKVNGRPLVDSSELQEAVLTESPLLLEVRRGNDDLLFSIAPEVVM

Another test deals with T3, GRIP1_2, Q9Y3R0.
T3 sequence (Q9Y3R0 145-248, limits assumed, looked up): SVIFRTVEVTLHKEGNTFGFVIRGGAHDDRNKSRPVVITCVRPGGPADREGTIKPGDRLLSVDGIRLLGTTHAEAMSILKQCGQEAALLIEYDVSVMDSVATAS

The next test has as its target T4, APBA1_1, Q02410.
T4 sequence (Q02410 651-752, limits assumed, looked up): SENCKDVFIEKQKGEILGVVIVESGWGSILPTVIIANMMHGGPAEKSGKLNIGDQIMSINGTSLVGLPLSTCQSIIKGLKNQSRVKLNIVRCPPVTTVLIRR

Another test concerns the target T5, SHANK1, Q9Y566.
T5 sequence (Q9Y566 658-767, limits assumed, looked up): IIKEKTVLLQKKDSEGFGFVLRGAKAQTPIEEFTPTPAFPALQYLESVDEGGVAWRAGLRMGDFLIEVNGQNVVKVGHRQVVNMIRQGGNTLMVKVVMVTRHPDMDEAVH

A further test deals with T6, ARHGEF11, O15085.
T6 sequence (O15085 42-136, limits assumed, looked up): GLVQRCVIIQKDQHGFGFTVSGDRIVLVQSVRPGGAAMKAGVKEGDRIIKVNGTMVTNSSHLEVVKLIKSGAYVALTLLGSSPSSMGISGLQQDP

Another test deals with T7, APBA2_2, Q99767.
T7 sequence (Q99767 654-744, limits assumed, looked up): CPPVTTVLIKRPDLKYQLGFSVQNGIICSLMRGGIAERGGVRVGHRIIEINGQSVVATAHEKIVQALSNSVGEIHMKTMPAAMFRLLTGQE

A further test addresses T8, MPDZ_12, O75970.
T8 sequence (O75970 1857-1958, limits assumed, looked up): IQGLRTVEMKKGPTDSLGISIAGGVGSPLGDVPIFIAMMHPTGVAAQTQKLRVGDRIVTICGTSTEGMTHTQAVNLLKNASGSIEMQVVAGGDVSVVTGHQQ

The next test addresses T9, DLG3_2, Q92796.
T9 sequence (Q92796 221-321, limits assumed, looked up): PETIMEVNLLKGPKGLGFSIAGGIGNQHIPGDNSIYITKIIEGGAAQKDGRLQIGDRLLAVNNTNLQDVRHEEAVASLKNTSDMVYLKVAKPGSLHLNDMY

A further test addresses T10, MPP6, Q9NZW5.
T10 sequence (Q9NZW5 125-219, limits assumed, looked up): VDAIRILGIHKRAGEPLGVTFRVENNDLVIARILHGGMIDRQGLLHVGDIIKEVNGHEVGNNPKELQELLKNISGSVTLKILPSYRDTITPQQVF

Another test has as its target T11, PARD3B_1, Q8TEW8.
T11 sequence (Q8TEW8 196-299, limits assumed, looked up): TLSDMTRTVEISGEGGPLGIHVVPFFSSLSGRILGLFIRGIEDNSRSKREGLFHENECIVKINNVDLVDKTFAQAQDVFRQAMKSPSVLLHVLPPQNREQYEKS

For another test, the target named is T12, DLG3_3, Q92796.
T12 sequence (Q92796 374-475, limits assumed, looked up): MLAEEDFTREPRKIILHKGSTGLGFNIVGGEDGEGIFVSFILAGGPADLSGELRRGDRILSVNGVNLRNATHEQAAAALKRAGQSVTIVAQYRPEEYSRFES

Inadl_2, Q8NI35, sequence (Q8NI35 238-335): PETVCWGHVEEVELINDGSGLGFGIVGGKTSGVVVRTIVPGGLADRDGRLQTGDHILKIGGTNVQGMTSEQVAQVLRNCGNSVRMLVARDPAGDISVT
GRID2IP_2, A4D2P6, sequence (A4D2P6 272-370): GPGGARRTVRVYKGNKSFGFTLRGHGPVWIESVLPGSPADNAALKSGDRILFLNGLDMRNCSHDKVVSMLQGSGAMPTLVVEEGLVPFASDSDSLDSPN
DLG5_1, Q8TDM6, sequence (Q8TDM6 617-713): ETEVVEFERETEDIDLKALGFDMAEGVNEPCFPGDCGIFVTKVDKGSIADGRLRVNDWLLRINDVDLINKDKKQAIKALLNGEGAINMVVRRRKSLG
GRASP, Q7Z6J2, sequence (Q7Z6J2 96-193): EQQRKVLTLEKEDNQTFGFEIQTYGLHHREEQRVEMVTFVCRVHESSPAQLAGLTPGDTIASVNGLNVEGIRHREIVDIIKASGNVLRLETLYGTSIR
Inadl_1, Q8NI35, sequence (Q8NI35 113-229): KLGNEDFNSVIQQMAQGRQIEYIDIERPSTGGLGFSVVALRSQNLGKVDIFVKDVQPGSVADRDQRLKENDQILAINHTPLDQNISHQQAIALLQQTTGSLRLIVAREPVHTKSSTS
MAGI1_2, Q96QZ7, sequence (Q96QZ7 456-580): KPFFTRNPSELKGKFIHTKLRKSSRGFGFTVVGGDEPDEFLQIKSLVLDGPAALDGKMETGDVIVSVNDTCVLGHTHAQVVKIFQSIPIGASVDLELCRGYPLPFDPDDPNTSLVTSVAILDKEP
SCRIB_2, Q14160, sequence (Q14160 857-960): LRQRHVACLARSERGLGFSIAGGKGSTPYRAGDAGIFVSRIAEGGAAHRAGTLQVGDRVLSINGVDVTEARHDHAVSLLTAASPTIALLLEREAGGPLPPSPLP
LAP2, Q96RT1, sequence (Q96RT1 other isoform, or with tags, fused parts or gaps): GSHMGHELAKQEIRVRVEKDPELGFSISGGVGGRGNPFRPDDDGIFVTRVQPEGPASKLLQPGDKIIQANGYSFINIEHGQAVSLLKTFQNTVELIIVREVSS
TJP1_2, Q07157, sequence (Q07157 181-274): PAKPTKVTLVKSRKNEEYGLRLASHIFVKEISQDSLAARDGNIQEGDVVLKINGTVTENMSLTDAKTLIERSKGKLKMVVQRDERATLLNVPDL
GRIP2_4, Q9C0E4, sequence (Q9C0E4 446-548): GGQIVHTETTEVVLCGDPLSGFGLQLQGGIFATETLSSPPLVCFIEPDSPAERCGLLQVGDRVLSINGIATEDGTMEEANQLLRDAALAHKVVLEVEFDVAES

For GQETPLNTFC [MAP7D2, Q96T17], the pKd result was “below the threshold” with Inadl_1, Q8NI35; “below the threshold” with GRASP, Q7Z6J2; “below the threshold” with GRIP1_3, Q9Y3R0; “below the threshold” with TJP1_2, Q07157; 4.55 with HTRA3, P83110; “below the threshold” in the test with GOPC, Q9HD26. The pKd entry with GRIP1_2, Q9Y3R0 is “below the threshold”; with APBA1_1, Q02410, “below the threshold”; with SHANK1, Q9Y566, “below the threshold”; in the test with ARHGEF11, O15085, “below the threshold”; with LAP2, Q96RT1 it was “below the threshold”; with DLG2_3, Q15700, “below the threshold”. The pKd result with Inadl_2, Q8NI35 was “below the threshold”; with GRIP2_4, Q9C0E4, “below the threshold”; in the test with SCRIB_2, Q14160, “below the threshold”; with APBA2_2, Q99767, “below the threshold”; in the test with GRID2IP_2, A4D2P6 it was 3.88; in the test with MPDZ_12, O75970, “below the threshold”. In addition, the pKd with DLG3_2, Q92796 was 3.93; in the test with MPP6, Q9NZW5 it was 3.62; in the test with DLG5_1, Q8TDM6, “below the threshold”; with PARD3B_1, Q8TEW8 it was “below the threshold”; in the test with MAGI1_2, Q96QZ7, “below the threshold”; in the test with DLG3_3, Q92796, “below the threshold”.
For the molecule QYPGSPDSWV [PKP4, Q99569], the negative logarithm of the Kd (pKd) entry was “below the threshold” in the test with Inadl_1, Q8NI35; 3.52 with GRASP, Q7Z6J2; “below the threshold” in the test with GRIP1_3, Q9Y3R0; 3.76 with TJP1_2, Q07157; 5.54 with HTRA3, P83110; “below the threshold” with GOPC, Q9HD26. Further, the pKd result in the test with GRIP1_2, Q9Y3R0 was “below the threshold”; with APBA1_1, Q02410 it was “below the threshold”; in the test with SHANK1, Q9Y566, “below the threshold”; with ARHGEF11, O15085, “below the threshold”; with LAP2, Q96RT1 it was 5.5; with DLG2_3, Q15700, “below the threshold”. Further, the pKd result with Inadl_2, Q8NI35 is “below the threshold”; in the test with GRIP2_4, Q9C0E4, “below the threshold”; in the test with SCRIB_2, Q14160, 4.82; with APBA2_2, Q99767 it was “below the threshold”; in the test with GRID2IP_2, A4D2P6 it was “below the threshold”; with MPDZ_12, O75970, 4.69. In addition, the pKd with DLG3_2, Q92796 is 4.13; in the test with MPP6, Q9NZW5, “below the threshold”; with DLG5_1, Q8TDM6, “below the threshold”; with PARD3B_1, Q8TEW8, 3.56; with MAGI1_2, Q96QZ7, 3.48; with DLG3_3, Q92796 it was “below the threshold”.
As for DFRHKSSFVI [JAM3, Q9BX67], the pKd entry with Inadl_1, Q8NI35 is “below the threshold”; in the test with GRASP, Q7Z6J2, “below the threshold”; in the test with GRIP1_3, Q9Y3R0, “below the threshold”; with TJP1_2, Q07157, “below the threshold”; with HTRA3, P83110, 3.89; with GOPC, Q9HD26, “below the threshold”. Further, the pKd entry with GRIP1_2, Q9Y3R0 is “below the threshold”; with APBA1_1, Q02410, “below the threshold”; with SHANK1, Q9Y566 it was “below the threshold”; in the test with ARHGEF11, O15085, “below the threshold”; with LAP2, Q96RT1 it was “below the threshold”; with DLG2_3, Q15700, 3.52. Further, the pKd result is “below the threshold” with Inadl_2, Q8NI35; “below the threshold” with GRIP2_4, Q9C0E4; “below the threshold” with SCRIB_2, Q14160; “below the threshold” in the test with APBA2_2, Q99767; “below the threshold” in the test with GRID2IP_2, A4D2P6; 3.49 with MPDZ_12, O75970. In addition, the pKd with DLG3_2, Q92796 is 4.16; with MPP6, Q9NZW5, 3.62; with DLG5_1, Q8TDM6 it was “below the threshold”; in the test with PARD3B_1, Q8TEW8, 5.03; with MAGI1_2, Q96QZ7, “below the threshold”; with DLG3_3, Q92796 it was “below the threshold”.
Regarding LGHTPFVDEL [UQCRC2, P22695], the pKd entry was “below the threshold” in the test with Inadl_1, Q8NI35; 3.85 with GRASP, Q7Z6J2; “below the threshold” with GRIP1_3, Q9Y3R0; “below the threshold” with TJP1_2, Q07157; “below the threshold” with HTRA3, P83110; “below the threshold” with GOPC, Q9HD26. In addition, the negative-log Kd (pKd) result with GRIP1_2, Q9Y3R0 is “below the threshold”; with APBA1_1, Q02410, “below the threshold”; in the test with SHANK1, Q9Y566 it was “below the threshold”; with ARHGEF11, O15085 it was 3.79; in the test with LAP2, Q96RT1 it was “below the threshold”; with DLG2_3, Q15700, “below the threshold”. For the same molecule, the pKd result in the test with Inadl_2, Q8NI35 is reported as “below the threshold”; with GRIP2_4, Q9C0E4, “below the threshold”; with SCRIB_2, Q14160, “below the threshold”; with APBA2_2, Q99767 it was “below the threshold”; with GRID2IP_2, A4D2P6, “below the threshold”; with MPDZ_12, O75970 it was “below the threshold”. The negative logarithm of the Kd (pKd) was 3.48 with DLG3_2, Q92796; “below the threshold” with MPP6, Q9NZW5; “below the threshold” in the test with DLG5_1, Q8TDM6; “below the threshold” with PARD3B_1, Q8TEW8; “below the threshold” with MAGI1_2, Q96QZ7; “below the threshold” with DLG3_3, Q92796.

For orientation: pKd means the Kd on a negative log10 scale, so that one unit is a factor of ten.
